Measurements: the supplement of paper PMC10065799, “High-throughput profiling of sequence recognition by tyrosine kinases and SH2 domains using bacterial peptide display” (eLife, 2023)

Biological target: FGFR3 (UniProt P22607)
Test: phosphorylation enrichment, bacterial display (enrichment ratio); higher = better substrate or ligand; peptides without Tyr show the background
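Also: 11-residue human phosphosite peptides and single-mutation variants displayed on the E. coli surface, counted by deep sequencing, each peptide's frequency after selection divided by its frequency in the unselected input library; frequency after pTyr selection over input frequency; kinase dosed for 20-30% of maximal phosphorylation in three min.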

FGFR3, sequence (P22607 whole entry, looked up): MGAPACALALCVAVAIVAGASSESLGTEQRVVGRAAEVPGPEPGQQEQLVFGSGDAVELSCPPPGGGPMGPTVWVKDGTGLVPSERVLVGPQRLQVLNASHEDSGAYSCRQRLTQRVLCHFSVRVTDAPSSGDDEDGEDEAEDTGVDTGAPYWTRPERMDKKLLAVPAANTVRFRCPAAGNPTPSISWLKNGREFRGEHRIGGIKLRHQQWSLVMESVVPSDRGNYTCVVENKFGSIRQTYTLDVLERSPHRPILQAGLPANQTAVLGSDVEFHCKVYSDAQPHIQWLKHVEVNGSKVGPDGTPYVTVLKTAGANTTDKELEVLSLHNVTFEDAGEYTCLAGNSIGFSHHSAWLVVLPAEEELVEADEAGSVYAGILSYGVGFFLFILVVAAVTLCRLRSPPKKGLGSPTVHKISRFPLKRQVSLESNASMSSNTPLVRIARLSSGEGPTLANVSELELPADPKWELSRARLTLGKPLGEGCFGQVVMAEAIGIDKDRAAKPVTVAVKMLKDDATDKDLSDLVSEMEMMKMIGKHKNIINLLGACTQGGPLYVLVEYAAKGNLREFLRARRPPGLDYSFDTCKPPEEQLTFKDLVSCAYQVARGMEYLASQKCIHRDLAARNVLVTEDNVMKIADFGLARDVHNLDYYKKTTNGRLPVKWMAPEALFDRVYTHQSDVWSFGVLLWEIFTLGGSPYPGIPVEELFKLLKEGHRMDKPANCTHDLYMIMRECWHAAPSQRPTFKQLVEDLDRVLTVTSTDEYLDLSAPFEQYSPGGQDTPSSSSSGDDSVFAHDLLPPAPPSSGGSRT

Row | Sequence | phosphorylation enrichment
1 | DFSLKYATDIP [APC_Y1183_YF] | 0.668
2 | LYSNAYLSDLA [ALDH1A1_Y119_N121S] | 1.23
3 | IVAREYYSKAD [CAMK2B_Y107_E110K] | 0.504
4 | GIATGYLVLKE [DNMT3B_Y588] | 0.611
5 | PLFRVYGLESL [INSR_Y94_L89P] | 0.686
6 | KVPRHYDDPGK [FOXG1_Y246] | 0.712
7 | EEEPVYEAEPE [HCLS1_Y360] | 0.84
8 | NSNSDYVDVLP [SH2D1B_Y127] | 2.95
9 | DLAGRYFALKS [CKB_Y173_YF] | 0.613
10 | GFQPEYGQPAG [SYP_Y278_D277E_YF] | 0.917
11 | SESSYYKSLNL [NGEF_Y289_A286S] | 0.841
12 | DYGSGYPNDPK [RNASEH2A_Y210] | 0.643
13 | KLQKFYRQNPD [EHHADH_Y683_YF] | 0.416
14 | SNSAAYSGSVA [PDLIM5_Y382_T381A] | 0.421
15 | RRIHNYRGHLW [VHL_Y112_S111N] | 0.511
16 | PLQSEYSSIST [ITGB4_Y1760_T1764S] | 0.925
17 | STEEQYRIRQV [EFHC1_Y115] | 0.554
18 | SAAAIYTVRHP [PMP22_Y117] | 0.43
19 | GELQGYDIMEP [MSH2_Y863_S860L] | 0.666
20 | ADYPDYKYRPR [SOX11_Y116] | 0.613
21 | TVVGLYQKSSL [MYH7_Y609] | 0.75
22 | PGPQSYPTVTG [PAX5_Y299_I301T] | 0.539
23 | AVISVYDLVAV [PSEN1_Y256] | 0.577
24 | ESLSSYRESAK [APOC2_Y47_W48R] | 0.456
25 | GVRYIYTIDGS [DCX_Y105] | 0.743
26 | ATARPYSPFII [LRP5_Y1528_R1529S_YF] | 0.618
27 | ISSLRYELLEE [TRPC6_Y896] | 0.764
28 | EADRKYEEVAC [TPM3_Y163_R168C] | 0.777
29 | LEAVSYSSRYA [RNLS_Y190] | 0.462

Test system: Fer (mouse)
Test: as above

Row | Sequence | phosphorylation enrichment
30 | DFSLKYATDIP [APC_Y1183_YF] | 0.536
31 | LYSNAYLSDLA [ALDH1A1_Y119_N121S] | 7.25
32 | IVAREYYSKAD [CAMK2B_Y107_E110K] | 0.405
33 | GIATGYLVLKE [DNMT3B_Y588] | 0.376
34 | PLFRVYGLESL [INSR_Y94_L89P] | 0.571
35 | KVPRHYDDPGK [FOXG1_Y246] | 1.11
36 | EEEPVYEAEPE [HCLS1_Y360] | 0.655
37 | NSNSDYVDVLP [SH2D1B_Y127] | 0.884
38 | DLAGRYFALKS [CKB_Y173_YF] | 0.37
39 | GFQPEYGQPAG [SYP_Y278_D277E_YF] | 0.506
40 | SESSYYKSLNL [NGEF_Y289_A286S] | 0.624
41 | DYGSGYPNDPK [RNASEH2A_Y210] | 0.538
42 | KLQKFYRQNPD [EHHADH_Y683_YF] | 0.387
43 | SNSAAYSGSVA [PDLIM5_Y382_T381A] | 0.343
44 | RRIHNYRGHLW [VHL_Y112_S111N] | 0.27
45 | PLQSEYSSIST [ITGB4_Y1760_T1764S] | 1.08
46 | STEEQYRIRQV [EFHC1_Y115] | 0.375
47 | SAAAIYTVRHP [PMP22_Y117] | 0.474
48 | GELQGYDIMEP [MSH2_Y863_S860L] | 0.471
49 | ADYPDYKYRPR [SOX11_Y116] | 0.342
50 | TVVGLYQKSSL [MYH7_Y609] | 0.675
51 | PGPQSYPTVTG [PAX5_Y299_I301T] | 0.63
52 | AVISVYDLVAV [PSEN1_Y256] | 13
53 | ESLSSYRESAK [APOC2_Y47_W48R] | 0.314
54 | GVRYIYTIDGS [DCX_Y105] | 0.415
55 | ATARPYSPFII [LRP5_Y1528_R1529S_YF] | 9.77
56 | ISSLRYELLEE [TRPC6_Y896] | 0.544
57 | EADRKYEEVAC [TPM3_Y163_R168C] | 0.61
58 | LEAVSYSSRYA [RNLS_Y190] | 0.433

Biological target: Fes (UniProt P07332)
Sequence (P07332 whole entry, looked up): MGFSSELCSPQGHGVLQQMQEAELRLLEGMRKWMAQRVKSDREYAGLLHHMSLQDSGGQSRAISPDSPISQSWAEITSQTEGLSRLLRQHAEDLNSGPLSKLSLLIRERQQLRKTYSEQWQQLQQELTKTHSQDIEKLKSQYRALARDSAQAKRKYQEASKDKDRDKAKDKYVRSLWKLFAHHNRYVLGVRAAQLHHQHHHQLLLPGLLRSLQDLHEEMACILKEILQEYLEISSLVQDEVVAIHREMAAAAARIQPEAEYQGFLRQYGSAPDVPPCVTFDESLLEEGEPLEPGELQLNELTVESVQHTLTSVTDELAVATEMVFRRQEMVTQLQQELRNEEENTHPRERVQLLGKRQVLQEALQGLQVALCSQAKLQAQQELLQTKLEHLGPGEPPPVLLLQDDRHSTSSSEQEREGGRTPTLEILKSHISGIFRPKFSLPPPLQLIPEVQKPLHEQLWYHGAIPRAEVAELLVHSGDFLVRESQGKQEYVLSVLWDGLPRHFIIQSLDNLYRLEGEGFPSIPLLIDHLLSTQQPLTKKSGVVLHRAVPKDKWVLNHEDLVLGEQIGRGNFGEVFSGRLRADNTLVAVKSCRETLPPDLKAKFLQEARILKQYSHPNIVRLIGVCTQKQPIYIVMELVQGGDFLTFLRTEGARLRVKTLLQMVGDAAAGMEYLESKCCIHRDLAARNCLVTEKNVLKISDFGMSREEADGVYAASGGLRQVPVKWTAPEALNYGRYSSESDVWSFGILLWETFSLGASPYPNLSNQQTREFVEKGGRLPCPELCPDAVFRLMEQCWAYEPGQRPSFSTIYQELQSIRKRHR
Test: as above

Row | Sequence | phosphorylation enrichment
59 | DFSLKYATDIP [APC_Y1183_YF] | 1.08
60 | LYSNAYLSDLA [ALDH1A1_Y119_N121S] | 1.01
61 | IVAREYYSKAD [CAMK2B_Y107_E110K] | 0.85
62 | GIATGYLVLKE [DNMT3B_Y588] | 0.77
63 | PLFRVYGLESL [INSR_Y94_L89P] | 1.43
64 | KVPRHYDDPGK [FOXG1_Y246] | 1.16
65 | EEEPVYEAEPE [HCLS1_Y360] | 1.42
66 | NSNSDYVDVLP [SH2D1B_Y127] | 1.33
67 | DLAGRYFALKS [CKB_Y173_YF] | 0.848
68 | GFQPEYGQPAG [SYP_Y278_D277E_YF] | 0.741
69 | SESSYYKSLNL [NGEF_Y289_A286S] | 0.756
70 | DYGSGYPNDPK [RNASEH2A_Y210] | 1.01
71 | KLQKFYRQNPD [EHHADH_Y683_YF] | 0.498
72 | SNSAAYSGSVA [PDLIM5_Y382_T381A] | 0.566
73 | RRIHNYRGHLW [VHL_Y112_S111N] | 0.738
74 | PLQSEYSSIST [ITGB4_Y1760_T1764S] | 1.28
75 | STEEQYRIRQV [EFHC1_Y115] | 0.589
76 | SAAAIYTVRHP [PMP22_Y117] | 0.601
77 | GELQGYDIMEP [MSH2_Y863_S860L] | 1.13
78 | ADYPDYKYRPR [SOX11_Y116] | 0.718
79 | TVVGLYQKSSL [MYH7_Y609] | 0.988
80 | PGPQSYPTVTG [PAX5_Y299_I301T] | 0.888
81 | AVISVYDLVAV [PSEN1_Y256] | 1.2
82 | ESLSSYRESAK [APOC2_Y47_W48R] | 0.529
83 | GVRYIYTIDGS [DCX_Y105] | 1.31
84 | ATARPYSPFII [LRP5_Y1528_R1529S_YF] | 0.735
85 | ISSLRYELLEE [TRPC6_Y896] | 1.17
86 | EADRKYEEVAC [TPM3_Y163_R168C] | 1.41
87 | LEAVSYSSRYA [RNLS_Y190] | 0.704

Biological target: Fyn (UniProt P06241)
Sequence (P06241 whole entry, looked up): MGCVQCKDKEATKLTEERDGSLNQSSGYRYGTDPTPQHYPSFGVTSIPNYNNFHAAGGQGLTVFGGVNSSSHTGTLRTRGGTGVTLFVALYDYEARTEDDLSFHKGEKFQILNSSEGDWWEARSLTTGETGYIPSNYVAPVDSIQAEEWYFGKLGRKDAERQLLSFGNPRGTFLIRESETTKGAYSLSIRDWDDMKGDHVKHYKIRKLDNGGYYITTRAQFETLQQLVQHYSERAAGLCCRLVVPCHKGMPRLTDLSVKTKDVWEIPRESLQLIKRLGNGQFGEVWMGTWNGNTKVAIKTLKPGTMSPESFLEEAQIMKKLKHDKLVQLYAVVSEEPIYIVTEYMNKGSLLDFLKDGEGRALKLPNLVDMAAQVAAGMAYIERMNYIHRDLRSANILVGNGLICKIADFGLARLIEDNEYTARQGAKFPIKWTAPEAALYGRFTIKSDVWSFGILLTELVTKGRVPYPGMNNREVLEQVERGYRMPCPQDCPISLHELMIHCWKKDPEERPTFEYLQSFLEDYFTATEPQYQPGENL
Test: as above

Row | Sequence | phosphorylation enrichment
88 | DFSLKYATDIP [APC_Y1183_YF] | 0.524
89 | LYSNAYLSDLA [ALDH1A1_Y119_N121S] | 3.58
90 | IVAREYYSKAD [CAMK2B_Y107_E110K] | 0.423
91 | GIATGYLVLKE [DNMT3B_Y588] | 0.385
92 | PLFRVYGLESL [INSR_Y94_L89P] | 1.03
93 | KVPRHYDDPGK [FOXG1_Y246] | 0.443
94 | EEEPVYEAEPE [HCLS1_Y360] | 0.765
95 | NSNSDYVDVLP [SH2D1B_Y127] | 0.628
96 | DLAGRYFALKS [CKB_Y173_YF] | 0.433
97 | GFQPEYGQPAG [SYP_Y278_D277E_YF] | 0.592
98 | SESSYYKSLNL [NGEF_Y289_A286S] | 0.657
99 | DYGSGYPNDPK [RNASEH2A_Y210] | 0.474
100 | KLQKFYRQNPD [EHHADH_Y683_YF] | 0.418
101 | SNSAAYSGSVA [PDLIM5_Y382_T381A] | 0.404
102 | RRIHNYRGHLW [VHL_Y112_S111N] | 0.481
103 | PLQSEYSSIST [ITGB4_Y1760_T1764S] | 1.27
104 | STEEQYRIRQV [EFHC1_Y115] | 0.475
105 | SAAAIYTVRHP [PMP22_Y117] | 5.3
106 | GELQGYDIMEP [MSH2_Y863_S860L] | 0.412
107 | ADYPDYKYRPR [SOX11_Y116] | 0.389
108 | TVVGLYQKSSL [MYH7_Y609] | 0.55
109 | PGPQSYPTVTG [PAX5_Y299_I301T] | 0.828
110 | AVISVYDLVAV [PSEN1_Y256] | 6.35
111 | ESLSSYRESAK [APOC2_Y47_W48R] | 0.342
112 | GVRYIYTIDGS [DCX_Y105] | 1.76
113 | ATARPYSPFII [LRP5_Y1528_R1529S_YF] | 0.504
114 | ISSLRYELLEE [TRPC6_Y896] | 0.511
115 | EADRKYEEVAC [TPM3_Y163_R168C] | 0.574
116 | LEAVSYSSRYA [RNLS_Y190] | 0.389
